Assay results reported in patent US20230272055A1 (Incyte, published 2023).
Where a chain is given by its changes, count along the chain named. Names and notes keep the numbering of the source.

T1: Human Type 1 mutCALR (human)
T1 chain: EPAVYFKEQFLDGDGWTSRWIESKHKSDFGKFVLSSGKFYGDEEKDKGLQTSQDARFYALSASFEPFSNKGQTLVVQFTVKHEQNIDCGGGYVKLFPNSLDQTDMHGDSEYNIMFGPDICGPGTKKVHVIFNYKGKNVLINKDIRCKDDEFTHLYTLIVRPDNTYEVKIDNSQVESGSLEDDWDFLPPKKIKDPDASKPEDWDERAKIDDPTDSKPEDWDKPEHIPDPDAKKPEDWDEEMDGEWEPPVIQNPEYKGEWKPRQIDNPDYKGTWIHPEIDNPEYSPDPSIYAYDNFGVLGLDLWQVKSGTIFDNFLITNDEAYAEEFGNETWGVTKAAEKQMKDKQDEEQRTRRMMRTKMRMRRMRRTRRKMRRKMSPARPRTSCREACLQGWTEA

B1: anti-mutCALR antibody clone 162 (antibody, human IgG1, lambda, N297A)
heavy: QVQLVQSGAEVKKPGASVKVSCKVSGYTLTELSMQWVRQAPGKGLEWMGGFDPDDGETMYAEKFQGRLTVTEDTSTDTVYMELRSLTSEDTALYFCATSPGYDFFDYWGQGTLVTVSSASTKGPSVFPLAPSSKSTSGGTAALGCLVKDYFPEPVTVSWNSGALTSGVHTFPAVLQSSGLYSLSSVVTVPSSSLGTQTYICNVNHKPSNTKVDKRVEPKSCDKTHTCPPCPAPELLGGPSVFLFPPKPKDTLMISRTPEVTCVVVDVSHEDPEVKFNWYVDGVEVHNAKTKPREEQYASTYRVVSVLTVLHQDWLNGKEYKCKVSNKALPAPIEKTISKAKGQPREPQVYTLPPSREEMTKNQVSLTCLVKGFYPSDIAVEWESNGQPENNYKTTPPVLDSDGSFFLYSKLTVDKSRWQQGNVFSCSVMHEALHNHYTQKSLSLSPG
light: SYVLTQPPSVSVAPGKTARITCGGDNIGSKSVHWYQQKPGQAPVLVVYDDSDRPSGIPERFSGSNSGNTATLTISRVEAGDEADYYCQVWDSSNDLLIFGGGTKLTVLGQPKAAPSVTLFPPSSEELQANKATLVCLISDFYPGAVTVAWKADSSPVKAGVETTTPSKQSNNKYAASSYLSLTPEQWKSHRSYSCQVTHEGSTVEKTVAPTECS
notes: human IgG1 N297A variant of clone 15
B2: anti-mutCALR antibody clone 65 (antibody, human IgG1, lambda, N297A, V domains shown)
VH: EVQLVQSGAEVKKPGASVKVSCKVSGYTLTELSMQWVRQAPGKGLEWMGGFDPDDGETMYAEKFQGRLTVTEDTSTDTVYMELRSLTSEDTALYFCATSPGYDFFDYWGQGTLVTVSS
VL: SYVLTQPPSVSVAPGKTARITCTGTSSDVGGYNYVSWYQQKPGQAPVLVVYEVSNRPSGIPERFSGSNSGNTATLTISRVEAGDEADYYCQVWDSSNDLLIFGGGTKLTVLG
notes: human IgG1 N297A variant of clone 6
B3: anti-mutCALR antibody clone 74 (antibody, human IgG1, lambda, N297A, V domains shown)
VH: B2 VH with G56A, R84S, T87R, L93V
VL: B2 VL
notes: as for B2
B4: anti-mutCALR antibody clone 40 (antibody, human IgG1, lambda, V domains shown)
VH: EVQLVQSGAEVKKPGASVKVSCKVSGYTLTESSMHWVRQAPGKGLEWMGLVDPEDGETIYAQKFQGRVTMTEDTSTDTAYMELSSLRSEDTAVYYCAREEWSGDGDDAFDIWGQGTMVTVSS
VL: QSVLTQPPSVSAAPGQKVTISCSGSSSNIGSYSVSWYQQLPGTAPKLLIYDNNKRPSGIPDRFSGSNSGTSATLGITGLQTGDEADYYCGTWDSSLSAWVFGGGTKLTVLG
B5: anti-mutCALR antibody clone 32 (antibody, human IgG1, lambda, V domains shown)
VH: QVQLVQSGAEVKKPGATVKISCKVSGYSFTDYFIHWVQQAPGKGLAWVGLVDPEDGETIYAEKFQGRVTITADTSTDTAYMELSSLRSEDTAVYYCATPGGILTDPDAFDIWGQGTMVTVSS
VL: QSALTQPASVSGSPGQSITISCTGTSSDVGGYNYVSWYQQHPGKAPKLMIYEVSNRPSGVSNRFSGSKSGNTASLTISGLQAEDEADYYCSSYTSSSTPYVFGTGTKVTVLG
B6: anti-mutCALR antibody clone 33 (antibody, human IgG1, lambda, V domains shown)
VH: B5 VH
VL: QSALTQPRSVSGSPGQSVTISCAGTGSDVGGYNHVSWYQHHPGKAPKLMIYDVNKRPSGVPDRFSGSKSGNTASLTISGLQAEDEADYYCSSYIPSSTRWVFGGGTKLTVLG
B7: anti-mutCALR antibody clone 34 (antibody, human IgG1, lambda, V domains shown)
VH: B5 VH
VL: QSALTQPASVSGSPGQSITISCTGTSSDVGGYNYVSWYQQHPGKAPKLMIYEVSNRPSGVSNRFSGSKSGNTASLTISGLQAEDEADYYCSSYTSSSTYVFGTGTKVTVLG
B8: anti-mutCALR antibody clone 31 (antibody, human IgG1, lambda, V domains shown)
VH: B5 VH
VL: B6 VL with R8A, A23T, G26S, H34Y
B9: anti-mutCALR antibody clone 53 (antibody, human IgG1, lambda, V domains shown)
VH: QVQLVQSGAEVKKPGASVKVSCKVSGYTLTELSMHWVRQAPGKGLEWMGGFDPEDGETIYAQKFQGRVTMTEDTSTDTAYMELSSLRSEDTAVYYCATDIQGLAEFDYWGQGTLVTVSS
VL: QSALTQPRSVSGSPGQSVTISCTGTNTDVGAYIDVSWYQQHPGKAPKLIIYDVSKWPSGVPDRFSGSKSGNTASLTISGLQAEDEADYYCCSYAGNHSFSFGGGTKVTVLG
notes: human IgG1; group 13
B10: anti-mutCALR antibody clone 41 (antibody, human IgG1, lambda, V domains shown)
VH: B4 VH with S32L
VL: B4 VL
notes: human IgG1; group 4
B11: anti-mutCALR antibody clone 40 (antibody, human IgG1, lambda, V domains shown)
VH: B4 VH
VL: B4 VL
notes: human IgG1; group 4
B12: anti-mutCALR antibody clone 42 (antibody, human IgG1, lambda, V domains shown)
VH: B4 VH with S32L
VL: B4 VL with N52D, G75S
notes: human IgG1; group 4
B13: anti-mutCALR antibody clone 48 (antibody, human IgG1, lambda, V domains shown)
VH: EVQLVQSGAEVKKPGSSVKVSCKASGGTFSSYAISWVRQAPGQGLEWMGGIIPIFGTANYAQKFQGRVTITADESTSTAYMELSSLRSEDTAVYYCASSPLRGSGWYWHYYYGMDVWGQGTTVTVSS
VL: SYVLTQPPSVSVAPGKTARITCGGNNIGSKSVHWYQQKPGQAPVLVIYQDRKRPSGIPERFSGSNSGNTATLTISGTQAMDEADYYCQAWDSSTAVFGGGTKLTVLG
B14: anti-mutCALR antibody clone 49 (antibody, human IgG1, lambda, V domains shown)
VH: B13 VH
VL: SYELTQPPSVSVAPGKTARITCGGNNIRAKHVHWYQQKPGQSPVLVIYQDSKRPSGIPERFSGSNSGSTATLTISRVEAGDEADYYCQVWDSSTVVFGGGTKLTVLG
B15: anti-mutCALR antibody clone 51 (antibody, human IgG1, lambda, V domains shown)
VH: B13 VH
VL: B13 VL with V3E, N26K, S29T, R51S, D91G, A95V
B16: anti-mutCALR antibody clone 47 (antibody, human IgG1, lambda, V domains shown)
VH: B13 VH
VL: B14 VL with N26K, R28G, A29T, H31S, S42A, Q49R, K52N, S68N, V77A, E78Q
B17: anti-mutCALR antibody clone 45 (antibody, human IgG1, lambda, V domains shown)
VH: B13 VH
VL: SYVLTQPLSVSVAPGQTARITCGGNNIGRKSVHWYQQKPGQAPVLVIYRDSNRPSGIPERFSGSNSGNTATLTISRAQAGDEADYYCQVWDSSTVVFGGGTKLTVLG
B18: anti-mutCALR antibody clone 46 (antibody, human IgG1, lambda, V domains shown)
VH: B13 VH with E1Q
VL: B13 VL with V3E, G28R, I47V, R51S, A89V
B19: anti-mutCALR antibody clone 43 (antibody, human IgG1, lambda, V domains shown)
VH: B13 VH with S16A
VL: not shown
B20: anti-mutCALR antibody clone 44 (antibody, human IgG1, lambda, V domains shown)
VH: B13 VH
VL: B13 VL with V12A, T21S, G28R, P39A, R51S, S93N, A95V
B21: anti-mutCALR antibody clone 50 (antibody, human IgG1, lambda, V domains shown)
VH: B13 VH with E1Q, V2M
VL: B13 VL with S29T, A42S, A89V, A95E
B22: anti-mutCALR antibody clone 52 (antibody, human IgG1, kappa, V domains shown)
VH: EVQLVQSGAEVKKPGASVKVSCKVSGYTLTELSMHWVRQAPGKGLEWMGLVDPEDGETIYAEKFQGRVTITADTSTDTAYMELSSPRSEDTAVYYCATTIGDDYFDYWGQGTLVTVSS
VL: not shown

Molecular target: T2, Recombinant MBP-mutCALR Type 2 fusion protein (human)
T2 construct: custom made at Cepter
Assay: SPR, IgG captured, 1:1 fit, Exp. 3
Experimental: Experiment 2: Recombinant MBP-mutCALR Type 1 fusion protein was custom made at Cepter (cepterbiopartners.com). Data for the interaction of antibodies with recombinant mutCALR protein were collected at 25° C. on a Biacore 8K instrument (Cytiva, Marlborough, Mass.), and all reagents were obtained from Cytiva unless otherwise specified. The experiments were conducted using Tris-buffered saline (pH 7.2), 0.005% Surfactant P20, 1 mM CaCl₂) as running buffer. To prepare the capture surfaces, anti-human IgG (Fc) antibodies (Product #29234600) was amine-coupled onto a CM4 chip (Product #BR100534) under standard conditions using an Amine Coupling Kit (Product #BR100050). […] The kinetics parameters were obtained by applying 1:1 binding model to fit the data from multiple-cycle injection experiments using Biacore Insight Evaluation software.
Recombinant MBP-mutCALR Type 2 fusion protein was custom made at Cepter (cepterbiopartners.com). Data for the interaction of antibodies with recombinant MBP-mutCALR Type 2 fusion protein were collected as described in Experiment 2. The chip used was a Biacore Series S Sensor Chip CM4 with anti-huFc immobilized onto the chip surface.

Question: With B1 as the binder, how does the Kd read?
Answer: The Kd was 11.2 nM.

Question: What about the koff of the same binder?
Answer: Its koff is 0.00682 s⁻¹.

Question: And the kon?
Answer: Its kon is 607000 M⁻¹ s⁻¹.

Question: Which Kd does the source give for B2 here?
Answer: The Kd was 6.35 nM.

Question: And the koff?
Answer: The koff was 0.00424 s⁻¹.

Question: What about the kon of the same binder?
Answer: The kon was 668000 M⁻¹ s⁻¹.

Question: B3 was tested. Which Kd did it give?
Answer: Its Kd is 6.78 nM.

Question: What about the koff of the same binder?
Answer: Its koff is 0.00579 s⁻¹.

Question: What about the kon of the same binder?
Answer: The kon was 854000 M⁻¹ s⁻¹.

Molecular target: T1, Human Type 1 mutCALR
Assay: cell-based or functional assay

Question: B4 was tested. Which “Log IC50 of inhibition of cell proliferation, antibody + ruxolitinib (Ba/F3-TPOR/mutCALR type 1 cells); extrapolated from fitted curve” value did it give?
Answer: The value was -1.59 Log IC50 (µg/mL).

Question: How did the “Log IC50 of inhibition of cell proliferation, antibody + ruxolitinib (Ba/F3-TPOR/mutCALR type 1 cells); extrapolated from fitted curve” value turn out when B5 was run?
Answer: Its value is -0.586 Log IC50 (µg/mL).

Question: What about the “Log IC50 of inhibition of cell proliferation, antibody alone (Ba/F3-TPOR/mutCALR type 1 cells); extrapolated from fitted curve” value of the same binder?
Answer: Its value is 0.18 Log IC50 (µg/mL).

Molecular target: T1, Human Type 1 mutCALR
Assay: cell-based or functional assay
Remark: another data set of the same source

Question: B4 was tested. Which “IC50 of inhibition of cell proliferation (Ba/F3 cells with MPL and mutCALR Type 1)” value did it give?
Answer: Its value is 0.0384 mg/L.

Question: With B5 as the binder, how does the “IC50 of inhibition of cell proliferation (Ba/F3 cells with MPL and mutCALR Type 1)” value read?
Answer: Its value is 0.225 mg/L.

Question: How did the “IC50 of inhibition of cell proliferation (Ba/F3 cells with MPL and mutCALR Type 1)” value turn out when B6 was run?
Answer: Its value is 16.9 mg/L.

Question: Which “IC50 of inhibition of cell proliferation (Ba/F3 cells with MPL and mutCALR Type 1)” value does the source give for B7 here?
Answer: Its value is 0.0593 mg/L.

Question: With B8 as the binder, how does the “IC50 of inhibition of cell proliferation (Ba/F3 cells with MPL and mutCALR Type 1)” value read?
Answer: The value was 13 mg/L.

Molecular target: MBP protein (UniProt P0AEX9 27-392 = MBP)
Assay: SPR (Biacore 8K), antibody captured on anti-human IgG (Fc), MBP injected

Question: Does B9 bind?
Answer: Result: no binding (tested: 250 nM)

Question: Does B10 bind?
Answer: Result: no binding (tested: 250 nM)

Question: Does B11 bind?
Answer: Result: no binding (tested: 250 nM)

Question: Does B12 bind?
Answer: Result: no binding (tested: 250 nM)

Question: Does B13 bind?
Answer: Result: no binding (tested: 250 nM)

Question: Does B14 bind?
Answer: Result: no binding (tested: 250 nM)

Question: Does B15 bind?
Answer: Result: no binding (tested: 250 nM)

Question: Does B16 bind?
Answer: Result: no binding (tested: 250 nM)

Question: Does B17 bind?
Answer: Result: no binding (tested: 250 nM)

Question: Does B18 bind?
Answer: Result: no binding (tested: 250 nM)

Question: Does B19 bind?
Answer: Result: no binding (tested: 250 nM)

Question: Does B20 bind?
Answer: Result: no binding (tested: 250 nM)

Question: Does B21 bind?
Answer: Result: no binding (tested: 250 nM)

Question: Does B22 bind?
Answer: Result: no binding (tested: 250 nM)

Molecular target: T3, Recombinant MBP-mutCALR Type 1 fusion protein (human)
T3 construct: custom made at Cepter; also called recombinant mutCALR protein
Assay: SPR, IgG captured, 1:1 fit, Exp. 2
In short: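 Antibodies captured via amine-coupled anti-human IgG (Fc) on a CM4 chip; recombinant MBP-mutCALR Type 1 fusion protein as analyte. Run at 25 °C in Tris-buffered saline pH 7.2, 0.005% P20, 1 mM CaCl₂. Multiple-cycle kinetics fitted to a 1:1 binding model.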

Question: B2 was tested. Which Kd did it give?
Answer: The Kd was 0.502 nM.

Question: What about the koff of the same binder?
Answer: Its koff is 0.00231 s⁻¹.

Question: And the kon?
Answer: Its kon is 4.6e+06 M⁻¹ s⁻¹.

Question: With B3 as the binder, how does the Kd read?
Answer: Its Kd is 1.19 nM.

Question: What about the koff of the same binder?
Answer: The koff was 0.00153 s⁻¹.

Question: What about the kon of the same binder?
Answer: The kon was 1.29e+06 M⁻¹ s⁻¹.
